Measurements as given in patent US20250074980A1 (BRIGHAM AND WOMEN S HOSPITAL, published 2025).

T1: His-tagged CEACAM1 (human, UniProt P13688 35-428)
T1 construct: 45 kDa SPR analyte; also called CEACAM1-HIS; CEACAM1 analyte
T1 sequence: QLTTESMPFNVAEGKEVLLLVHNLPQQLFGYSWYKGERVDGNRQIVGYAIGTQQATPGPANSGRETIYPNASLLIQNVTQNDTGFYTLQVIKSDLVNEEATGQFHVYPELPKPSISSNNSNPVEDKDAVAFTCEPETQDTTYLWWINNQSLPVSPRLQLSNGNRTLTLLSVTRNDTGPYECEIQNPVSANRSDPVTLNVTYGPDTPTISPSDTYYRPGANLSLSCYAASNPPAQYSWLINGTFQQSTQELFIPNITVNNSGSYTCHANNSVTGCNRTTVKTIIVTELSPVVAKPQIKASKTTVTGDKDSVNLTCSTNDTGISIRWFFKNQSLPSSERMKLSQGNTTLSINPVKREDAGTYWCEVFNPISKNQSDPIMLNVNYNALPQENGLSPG

T2: CEACAM6 on transfected HeLa cells (human, UniProt P40199 35-320)
T2 construct: whole, on cells; also called HeLa-CEACAM6; HeLa C6
T2 sequence (looked up): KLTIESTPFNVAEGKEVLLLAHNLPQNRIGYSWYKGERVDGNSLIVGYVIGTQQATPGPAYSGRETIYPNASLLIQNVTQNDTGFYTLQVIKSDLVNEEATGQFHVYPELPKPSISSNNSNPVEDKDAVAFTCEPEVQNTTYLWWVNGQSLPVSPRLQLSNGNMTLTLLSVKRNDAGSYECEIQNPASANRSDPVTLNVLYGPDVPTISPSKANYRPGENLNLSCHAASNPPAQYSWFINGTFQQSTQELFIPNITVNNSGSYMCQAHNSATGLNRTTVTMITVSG

T3: CEACAM3 on transfected HeLa cells (human, UniProt P40198 35-252)
T3 construct: whole, on cells; also called HeLa-CEACAM3; HeLa C3
T3 sequence (looked up): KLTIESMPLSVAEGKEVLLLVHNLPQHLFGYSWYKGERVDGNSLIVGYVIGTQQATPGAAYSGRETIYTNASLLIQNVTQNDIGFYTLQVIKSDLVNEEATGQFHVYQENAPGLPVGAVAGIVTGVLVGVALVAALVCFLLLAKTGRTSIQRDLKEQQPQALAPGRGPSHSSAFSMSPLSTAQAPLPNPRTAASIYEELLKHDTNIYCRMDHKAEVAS

T4: CEACAM8 on transfected HeLa cells (human, UniProt P31997 35-320)
T4 construct: whole, on cells; also called HeLa-CEACAM8; HeLa C8
T4 sequence (looked up): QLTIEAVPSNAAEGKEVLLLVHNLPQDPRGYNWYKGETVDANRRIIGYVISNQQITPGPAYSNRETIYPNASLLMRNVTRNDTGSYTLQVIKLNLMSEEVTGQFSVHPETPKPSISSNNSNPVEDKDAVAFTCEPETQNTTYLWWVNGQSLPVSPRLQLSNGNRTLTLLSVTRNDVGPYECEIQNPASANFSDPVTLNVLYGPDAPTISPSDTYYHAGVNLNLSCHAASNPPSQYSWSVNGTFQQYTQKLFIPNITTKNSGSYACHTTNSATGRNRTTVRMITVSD

T5: GST-CEACAM1 (human, UniProt P13688 35-141, limits assumed)
T5 construct: also called human CEACAM1-GST protein
T5 sequence: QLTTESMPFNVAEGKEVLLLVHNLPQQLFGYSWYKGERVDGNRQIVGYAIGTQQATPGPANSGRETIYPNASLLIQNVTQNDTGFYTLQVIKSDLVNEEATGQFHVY

B1: VH2/Vκ10 (antibody, IgG4, V domains shown)
VH: EVQLLESGGGLVQPGGSLRLSCAASGFIFSSHGMSWVRQAPGKGLEWVATISSGGTYTYYPDSVKGRFTISRDNSKNTLYLQMNSLRAEDTAMYYCARHDFDYDAAWFAYWGQGTLVTVSS
VL: EIVLTQSPATLSLSPGERATLSCRANSSVSYMYWYQQKPGQAPRPWIYLTSNRATGIPARFSGSGSGTDFTLTISSLEPEDFATYYCQQWSSNPPTFGQGTKLEIK
notes: IgG4 (S241P), kappa
B2: VH2/Vκ12 (antibody, IgG4, V domains shown)
VH: EVQLLESGGGLVQPGGSLRLSCAASGFIFSSHGMSWVRQAPGKGLEWVATISSGGTYTYYPDSVKGRFTISRDNSKNTLYLQMNSLRAEDTAMYYCARHDFDYDAAWFAYWGQGTLVTVSS
VL: EIVLTQSPATLSLSPGERATLSCRANSSVSYMYWYQQKPGQAPRPLIYLTSNRATGIPARFSGSGSGTDYTLTISSLEPEDFATYYCQQWSSNPPTFGQGTKLEIK
notes: IgG4 (S241P), kappa
B3: VH2/Vκ11 (antibody, IgG4, V domains shown)
VH: EVQLLESGGGLVQPGGSLRLSCAASGFIFSSHGMSWVRQAPGKGLEWVATISSGGTYTYYPDSVKGRFTISRDNSKNTLYLQMNSLRAEDTAMYYCARHDFDYDAAWFAYWGQGTLVTVSS
VL: EIVLTQSPATLSLSPGERATLSCRANSSVSYMYWYQQKPGQAPRPWIYLTSNRATGIPARFSGSGSGTDYTLTISSLEPEDFAVYYCQQWSSNPPTFGQGTKLEIK
notes: IgG4 (S241P), kappa
B4: VH4/Vκ5 (antibody, IgG4, V domains shown)
VH: EVQLLESGGGLVQPGGSLRLSCAASGFIFSSHGMSWVRQAPGKGLEWVSTISSGGTYTYYADSVKGRFTISRDNSKNTLYLQMNSLRAEDTAVYYCARHDFDYDAAWFAYWGQGTLVTVSS
VL: EIVLTQSPATLSLSPGERATLSCRANSSVSYMAWYQQKPGQAPRLLIYLTSNRATGIPARFSGSGSGTDFTLTISSLEPEDFAVYYCQQWSSNPPTFGQGTKLEIK
notes: IgG4 (S241P), kappa
B5: VH2/Vκ3 (antibody, IgG4, V domains shown)
VH: EVQLLESGGGLVQPGGSLRLSCAASGFIFSSHGMSWVRQAPGKGLEWVATISSGGTYTYYPDSVKGRFTISRDNSKNTLYLQMNSLRAEDTAMYYCARHDFDYDAAWFAYWGQGTLVTVSS
VL: EIVLTQSPATLSLSPGERATLSCRANSSVSYMAWYQQKPGQAPRPWIYLTSNRATGVPARFSGSGSGTDYTLTISSLEPEDFATYYCQQWSSNPPTFGQGTKLEIK
notes: IgG4 (S241P), kappa
B6: VH2/Vκ5 (antibody, IgG4, V domains shown)
VH: EVQLLESGGGLVQPGGSLRLSCAASGFIFSSHGMSWVRQAPGKGLEWVATISSGGTYTYYPDSVKGRFTISRDNSKNTLYLQMNSLRAEDTAMYYCARHDFDYDAAWFAYWGQGTLVTVSS
VL: EIVLTQSPATLSLSPGERATLSCRANSSVSYMAWYQQKPGQAPRLLIYLTSNRATGIPARFSGSGSGTDFTLTISSLEPEDFAVYYCQQWSSNPPTFGQGTKLEIK
notes: IgG4 (S241P), kappa
B7: VH4/Vκ3 (antibody, IgG4, V domains shown)
VH: EVQLLESGGGLVQPGGSLRLSCAASGFIFSSHGMSWVRQAPGKGLEWVSTISSGGTYTYYADSVKGRFTISRDNSKNTLYLQMNSLRAEDTAVYYCARHDFDYDAAWFAYWGQGTLVTVSS
VL: EIVLTQSPATLSLSPGERATLSCRANSSVSYMAWYQQKPGQAPRPWIYLTSNRATGVPARFSGSGSGTDYTLTISSLEPEDFATYYCQQWSSNPPTFGQGTKLEIK
notes: IgG4 (S241P), kappa

Experiments:
His-tagged CEACAM1 [1] = biological target: T1, His-tagged CEACAM1; experiment: SPR single-cycle, IgG captured
How it was run: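 Biacore T200 single-cycle kinetics at 25° C in HBS-P+ (pH 7.4): antibodies (purified or HEK EBNA supernatant, 1 μg/ml) captured on Protein A to ~75 RU, His-tagged CEACAM1 analyte at 3.125–50 nM (5-point 2-fold) at 50 μl/min without regeneration. Reference channel Fc1 subtracted.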

His-tagged CEACAM1 [2] = biological target: T1, His-tagged CEACAM1; experiment: SPR multi-cycle, IgG captured
Description: As an alternative approach to assess the binding of the 36 antibody combinations and the three control antibodies to CEACAM1, a kinetic analysis was performed on a Biacore T200 (serial no. 1909913) running Biacore T200 Evaluation Software V2.0.1 (Uppsala, Sweden). All experiments were run at 25° C. with HBS-P+ running buffer (pH 7.4) (GE Healthcare, cat. no. BR100671). All kinetic experiments were performed using His-tagged CEACAM1 as the analyte. For all experiments, antibodies were immobilized onto a Series S Protein A sensor chip surface. For kinetic experiments, the amount of immobilized/captured ligand was limited to avoid mass transfer effects at the surface of the chip with the surface ideally having an analyte binding level (Rₘₐₓ) of 50-150 RUs. Using a MW of 45 kDa for the CEACAM1 analyte, 150 kDa for the antibody ligand (estimated value for IgG), 50 RU for Rmax and the stoichiometry (Sm) as 2 due to the ability of each antibody to bind 2 target molecules, a target response level of ˜75 RUs was set for capture of all the sample antibodies.
The signal from the reference channel Fc1 was subtracted from that of Fc2, Fc3 and Fc4 to correct for differences in non-specific binding to a reference surface, a global Rmax parameter was used in the 1-to-1 binding model. The relative Kp compared to […] was calculated by dividing the Kp of the humanized CEACAM antibody variants by that of the chimeric antibody VH0/Vκ0 on the same chip. A summary of the averaged relative Kp obtained for the 12 antibody combinations analyzed using multi cycle kinetics can be found in Table 5.

[3] = biological target: T2, CEACAM6 on transfected HeLa cells; experiment: flow cytometry, HeLa-CEACAM6 transfectants, % positive cells
Description: Binding selectivity for CEACAM1 was tested for the 24 humanized antibody variants that bound to CEACAM1 (see Table 3), as well as the chimeric control antibody VH0/Vκ0, by flow cytometry on HeLa cells transfected with CEACAM1, 3, 5, 6 and 8. […] There was no evidence of any staining of the HeLa-CEACAM3 or HeLa-CEACAM8 transfectants. […] Due to its favorable affinity to and selectivity for CEACAM1 as well as its favorable expression level, VH1/Vκ8 was chosen as the framework for affinity maturation.

[4] = biological target: T3, CEACAM3 on transfected HeLa cells; experiment: flow cytometry, transfected HeLa
How it was run: (§1)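 HeLa cells stably transfected with single CEACAM family members were grown in DMEM with 10% fetal bovine serum at 37° C and 5.0% CO₂. After staining with the test antibody and then a fluorochrome-conjugated isotype-specific secondary antibody, with DAPI as the viability dye, the cells were run on a Cytoflex and the data analysed in FlowJo. Binding selectivity is reported as the staining of each transfectant.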

[5] = biological target: T4, CEACAM8 on transfected HeLa cells; experiment: flow cytometry, transfected HeLa
How it was run: as §1

GST-CEACAM1 = biological target: T5, GST-CEACAM1; experiment: competition ELISA vs parental murine antibody
Description: The binding of the purified antibodies to human CEACAM1 was assessed in a competition ELISA assay. Nunc Immuno MaxiSorp 96 well flat bottom microtitre plates were pre-coated with 1 μg/ml of GST-CEACAM1 in 1×PBS, overnight at 4° C. The following day the plates were blocked for 1 hour at room temperature (“RT”) with 2% BSA/PBS before washing 3× with PBST pH 7.4. A 3-fold dilution series of the chimeric antibody chimeric antibody VH0/Vκ0, an irrelevant IgG4 antibody, and the humanized CEACAM1 antibodies from 100 μg/ml to 0.07 or 0.002 μg/ml were pre-mixed with a constant concentration of parental murine antibody (0.45 μg/ml final concentration), added to the plate and incubated for 1 hour at room temperature. Following 3×PBST washes, the binding of the parental murine CEACAM1 antibody was detected with an anti-mouse-HRP and TMB substrate. The reaction was stopped with 3 M HCl, absorbance read at 450 nm on a Dynex Technologies MRX TC II plate reader and the binding curves plotted. The binding of the humanized CEACAM antibody variants to CEACAM1 was compared to the chimeric antibody (VHO/Vκ0), which was included on each plate.

Row | Binder | Kd (His-tagged CEACAM1 [1]) [nM] | relative KD to VH0/Vκ0 (His-tagged CEACAM1 [1]) | Kd (His-tagged CEACAM1 [2]) [nM] | average relative KD to VH0/Vκ0 (His-tagged CEACAM1 [2]) | koff (His-tagged CEACAM1 [2]) [s⁻¹] | kon (His-tagged CEACAM1 [2]) [M⁻¹ s⁻¹] | relative KD to VH0/Vκ0 (His-tagged CEACAM1 [2]) | binding result [3] | binding result [4] | binding result [5] | binding result (His-tagged CEACAM1 [1]) | binding result (GST-CEACAM1)
1 | B1 | 131 | 3.2 | 61 | 2.1 | 0.0246 | 407000 | 2.1 | no binding | no binding | no binding |  | 
2 | B2 | 145 | 3.5 | 152 | 2.7 | 0.0458 | 302000 | 2.7 | no binding | no binding | no binding |  | 
3 | B3 | 122 | 3 | 77 | 2.7 | 0.0289 | 375000 | 2.5 | no binding | no binding | no binding |  | 
4 | B4 |  |  |  |  |  |  |  |  |  |  | no binding (tested: 50 nM) | no binding (tested: 100 µg/ml)
5 | B5 |  |  |  |  |  |  |  |  |  |  |  | no binding (tested: 100 µg/ml)
6 | B6 |  |  |  |  |  |  |  |  |  |  | no binding (tested: 50 nM) | no binding (tested: 100 µg/ml)
7 | B7 |  |  |  |  |  |  |  |  |  |  | no binding (tested: 50 nM) | no binding (tested: 100 µg/ml)
